B1: KL001-16 (antibody, V domains shown)
VH: QVQLVESGAEVKKPGSSVKVSCKASGGTFSSYAISWVRQAPGQGLEWMGRIIPILGIANYAQKFQGRVTVTADKSTSTAYMELSSLRSEDTAVYYCARSGYGYAYGSFDYWGQGTLVTVSS
VL: QLVLTQPPSVSGAPGQTVTISCTGPTIGAGYDVHWYQQLPGAAPKLLIYGNLNRPSGVPDRFSGSKSGTSASLAITDLQAEDEADYYCQSYDSRLGVVFGGGTKLTVL
B2: KL001-27 (antibody, V domains shown)
VH: QVQLVESGAEVKKPGSSVKVSCKASGGTFSSYAISWVRQAPGQGLEWMGRIIPILGIANYAQKFQGRVTVTADKSTSTAYMELSSLRSEDTAVYYCARSGYGYAYGSFDYWGQGTLVTVSS
VL: QLVLTQPPSVSGAPGQTVTISCTGQTIGAGYDVHWYQQLPGAAPKLLIYGNLNRPSGVPDRFSGSKSGTSASLAITDLQAEDEADYYCQSYDSTDGVVFGGGTKLTVL
B3: KL001-09 (antibody, V domains shown)
VH: QVQLVESGAEVKKPGSSVKVSCKASGGTFSSYAISWVRQAPGQGLEWMGRIIPILQIANYAQKFQGRVTVTADKSTSTAYMELSSLRSEDTAVYYCARSGYGYAYGSFDYWGQGTLVTVSS
VL: QLVLTQPPSVSGAPGQTVTISCTGPPIGAGYDVHWYQQLPGAAPKLLIYGNLNRPSGVPDRFSGSKSGTSASLAITDLQAEDEADYYCQSYDSTPGVVFGGGTKLTVL
B4: KL001-19 (antibody, V domains shown)
VH: QVQLVESGAEVKKPGSSVKVSCKASGGTFSSYAISWVRQAPGQGLEWMGRIIPILGIANYAQKFQGRVTVTADKSTSTAYMELSSLRSEDTAVYYCARSGYGYAYGSFDYWGQGTLVTVSS
VL: QLVLTQPPSVSGAPGQTVTISCTGPTIGAGYDVHWYQQLPGAAPKLLIYGNLNRPSGVPDRFSGSKSGTSASLAITDLQAEDEADYYCQSYDSTVGVVFGGGTKLTVL
B5: KL001-11 (antibody, V domains shown)
VH: QVQLVESGAEVKKPGSSVKVSCKASGGTFSSYAISWVRQAPGQGLEWMGRIIPILGIANYAQKFQGRVTVTADKSTSTAYMELSSLRSEDTAVYYCARSGYGYAYGSFDYWGQGTLVTVSS
VL: QLVLTQPPSVSGAPGQTVTISCTGPTIGAGYDVHWYQQLPGAAPKLLIYGNLNRPSGVPDRFSGSKSGTSASLAITDLQAEDEADYYCQSYDRTLGVVFGGGTKLTVL
B6: KL001-04 (antibody, V domains shown)
VH: QVQLVESGAEVKKPGSSVKVSCKASGGTFSSYAISWVRQAPGQGLEWMGRIIPILGIANYAQKFQGRVTVTADKSTSTAYMELSSLRSEDTAVYYCARSGYGYAYGSFAAWGQGTLVTVSS
VL: QLVLTQPPSVSGAPGQTVTISCTGPTIGAGYDVHWYQQLPGAAPKLLIYGNLNRPSGVPDRFSGSKSGTSASLAITDLQAEDEADYYCQSYDSTLGVVFGGGTKLTVL
B7: KL001-26 (antibody, V domains shown)
VH: QVQLVESGAEVKKPGSSVKVSCKASGGTFSSYAISWVRQAPGQGLEWMGRIIPILGIANYAQKFQGRVTVTADKSTSTAYMELSSLRSEDTAVYYCARSGYGYAYGSFDYWGQGTLVTVSS
VL: QLVLTQPPSVSGAPGQTVTISCTGPTIGQGYDVHWYQQLPGAAPKLLIYGNLNRPSGVPDRFSGSKSGTSASLAITDLQAEDEADYYCQSYDSRLGVVFGGGTKLTVL
B8: KL001-10 (antibody, V domains shown)
VH: QVQLVESGAEVKKPGSSVKVSCKASGGTFSSYAISWVRQAPGQGLEWMGRIIPILGIANYAQKFQGRVTVTADKSTSTAYMELSSLRSEDTAVYYCARSGYGYAYGSFDYWGQGTLVTVSS
VL: QLVLTQPPSVSGAPGQTVTISCTGPTIGAGYDVHWYQQLPGAAPKLLIYGNLNRPSGVPDRFSGSKSGTSASLAITDLQAEDEADYYCQSYDQTLGVVFGGGTKLTVL
B9: KL001-12 (antibody, V domains shown)
VH: QVQLVESGAEVKKPGSSVKVSCKASGGTFSSYAISWVRQAPGQGLEWMGRIIPILGIANYAQKFQGRVTVTADKSTSTAYMELSSLRSEDTAVYYCARSGYGYAYGSFDYWGQGTLVTVSS
VL: QLVLTQPPSVSGAPGQTVTISCTGPTIGAGYDVHWYQQLPGAAPKLLIYGNLNRPSGVPDRFSGSKSGTSASLAITDLQAEDEADYYCQSYDSALGVVFGGGTKLTVL
B10: KL001-22 (antibody, V domains shown)
VH: QVQLVESGAEVKKPGSSVKVSCKASGGTFSSYAISWVRQAPGQGLEWMGRISPILGIANYAQKFQGRVTVTADKSTSTAYMELSSLRSEDTAVYYCARSGYGYAYGSFDYWGQGTLVTVSS
VL: QLVLTQPPSVSGAPGQTVTISCTGPTIGAGYDVHWYQQLPGAAPKLLIYGNLNRPSGVPDRFSGSKSGTSASLAITDLQAEDEADYYCQSYDSTLGVVFGGGTKLTVL
B11: KL001-15 (antibody, V domains shown)
VH: QVQLVESGAEVKKPGSSVKVSCKASGGTFSSYAISWVRQAPGQGLEWMGRIIPILGIANYAQKFQGRVTVTADKSTSTAYMELSSLRSEDTAVYYCARSGYGYAYGSFDYWGQGTLVTVSS
VL: QLVLTQPPSVSGAPGQTVTISCTGPTIQAGYDVHWYQQLPGAAPKLLIYGNLNRPSGVPDRFSGSKSGTSASLAITDLQAEDEADYYCQSYDSRLGVVFGGGTKLTVL
B12: KL001-17 (antibody, V domains shown)
VH: QVQLVESGAEVKKPGSSVKVSCKASGGTFSSYAISWVRQAPGQGLEWMGRIIPILGIANYAQKFQGRVTVTADKSTSTAYMELSSLRSEDTAVYYCARSGYGYAYGSFDYWGQGTLVTVSS
VL: QLVLTQPPSVSGAPGQTVTISCTGPVIGAGYDVHWYQQLPGAAPKLLIYGNLNRPSGVPDRFSGSKSGTSASLAITDLQAEDEADYYCQSYDSRLGVVFGGGTKLTVL
B13: KL001-20 (antibody, V domains shown)
VH: QVQLVESGAEVKKPGSSVKVSCKASGGTFSSYAISWVRQAPGQGLEWMGRIIPIMGIANYAQKFQGRVTVTADKSTSTAYMELSSLRSEDTAVYYCARSGYGYAYGSFDYWGQGTLVTVSS
VL: QLVLTQPPSVSGAPGQTVTISCTGPTIGAGYDVHWYQQLPGAAPKLLIYGNLNRPSGVPDRFSGSKSGTSASLAITDLQAEDEADYYCQSYDSTLGVVFGGGTKLTVL
B14: KL001-07 (antibody, V domains shown)
VH: QVQLVESGAEVKKPGSSVKVSCKASGGTFSSYAISWVRQAPGQGLEWMGRQIPILGIANYAQKFQGRVTVTADKSTSTAYMELSSLRSEDTAVYYCARSGYGYAYGSFDYWGQGTLVTVSS
VL: QLVLTQPPSVSGAPGQTVTISCTGPTIGAGYDVHWYQQLPGAAPKLLIYGNLNRPSGVPDRFSGSKSGTSASLAITDLQAEDEADYYCQSYDSRLGVVFGGGTKLTVL
B15: KL001-14 (antibody, V domains shown)
VH: QVQLVESGAEVKKPGSSVKVSCKASGGTFSSYAISWVRQAPGQGLEWMGRIIPILGIANYAQKFQGRVTVTADKSTSTAYMELSSLRSEDTAVYYCARSGYGYAYQSFDYWGQGTLVTVSS
VL: QLVLTQPPSVSGAPGQTVTISCTGPQIGAGYDVHWYQQLPGAAPKLLIYGNLNRPSGVPDRFSGSKSGTSASLAITDLQAEDEADYYCQSYDSRLGVVFGGGTKLTVL
B16: KL001-02 (antibody, V domains shown)
VH: QVQLVESGAEVKKPGSSVKVSCKASGGTFSSYAISWVRQAPGQGLEWMGRIIPILGIANYAQKFQGRVTVTADKSTSTAYMELSSLRSEDTAVYYCARSGHGYAYGSFDYWGQGTLVTVSS
VL: QLVLTQPPSVSGAPGQTVTISCTGPTIGQGYDVHWYQQLPGAAPKLLIYGNLNRPSGVPDRFSGSKSGTSASLAITDLQAEDEADYYCQSYDSRLGVVFGGGTKLTVL
B17: KL001-23 (antibody, V domains shown)
VH: QVQLVESGAEVKKPGSSVKVSCKASGGTFSSYAISWVRQAPGQGLEWMGRIIPILGIANYAQKFQGRVTVTADKSTSTAYMELSSLRSEDTAVYYCARSGYGYAYGVFDHWGQGTLVTVSS
VL: QLVLTQPPSVSGAPGQTVTISCTGPTIGAGYDVHWYQQLPGAAPKLLIYGNLNRPSGVPDRFSGSKSGTSASLAITDLQAEDEADYYCQSYDSRLGVVFGGGTKLTVL
B18: KL001-21 (antibody, V domains shown)
VH: QVQLVESGAEVKKPGSSVKVSCKASGGTFSSYAISWVRQAPGQGLEWMGRIIPVLGIANYAQKFQGRVTVTADKSTSTAYMELSSLRSEDTAVYYCARSGYGYAYGSFDYWGQGTLVTVSS
VL: QLVLTQPPSVSGAPGQTVTISCTGPTIGAGYDVHWYQQLPGAAPKLLIYGNLNRPSGVPDRFSGSKSGTSASLAITDLQAEDEADYYCQAYDSTLGVVFGGGTKLTVL
B19: KL001-24 (antibody, V domains shown)
VH: QVQLVESGAEVKKPGSSVKVSCKASGGTFSSYAISWVRQAPGQGLEWMGRIIPILGQANYAQKFQGRVTVTADKSTSTAYMELSSLRSEDTAVYYCARSGYGYAYGSFDYWGQGTLVTVSS
VL: QLVLTQPPSVSGAPGQTVTISCTGPTIGAGFDVHWYQQLPGAAPKLLIYGNLNRPSGVPDRFSGSKSGTSASLAITDLQAEDEADYYCQSYDSRLGVVFGGGTKLTVL
B20: KL001-06 (antibody, V domains shown)
VH: QVQLVESGAEVKKPGSSVKVSCKASGGTFSSYAISWVRQAPGQGLEWMGRIIPILGIANYAQKFQGRVTVTADKSTSTAYMELSSLRSEDTAVYYCARSGYGYAYGSFDVWGQGTLVTVSS
VL: QLVLTQPPSVSGAPGQTVTISCTGPTIGAGYDVHWYQQLPGAAPKLLIYGNLNRPSGVPDRFSGSKSGTSASLAITDLQAEDEADYYCQSYDSRLGVVFGGGTKLTVL
B21: KL001-18 (antibody, V domains shown)
VH: QVQLVESGAEVKKPGSSVKVSCKASGGTFSSYAISWVRQAPGQGLEWMGRIIPILGIANYAQKFQGRVTVTADKSTSTAYMELSSLRSEDTAVYYCARSGYGYAYGSFDYWGQGTLVTVSS
VL: QLVLTQPPSVSGAPGQTVTISCTGQTIGAGYDVHWYQQLPGAAPKLLIYGNLNRPSGVPDRFSGSKSGTSASLAITDLQAEDEADYYCQSYDSTEGVVFGGGTKLTVL

For orientation: Kd means the free concentration of one partner at which half of the binding sites on the other are occupied at equilibrium, for simple one-to-one binding. Lower therefore signals tighter binding.

In this assay the target is T1, PD-L1-Fc (PD-L1 antigen protein, extracellular region Met1-Thr239 fused to human Fc) (human, UniProt Q9NZQ7 19-239).
T1 construct: range 1-239; the secreted protein lacks it; also called PD-L1-Fc antigen; pCEP4-PDL1-Fc product; not shown: human Fc fragment of the pCEP4-Fc vector
T1 sequence (Q9NZQ7 19-239): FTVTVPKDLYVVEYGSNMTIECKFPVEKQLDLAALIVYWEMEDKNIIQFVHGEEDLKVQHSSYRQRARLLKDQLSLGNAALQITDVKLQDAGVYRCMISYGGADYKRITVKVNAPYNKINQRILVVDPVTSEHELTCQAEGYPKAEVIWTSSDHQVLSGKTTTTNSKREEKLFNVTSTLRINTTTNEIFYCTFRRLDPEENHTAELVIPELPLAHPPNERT
Kind of assay: BLI (Octet); PD-1-coated biosensor dipped in a mix of PD-L1 antigen protein and antibody; KD from the Octet software.
In turn, B1 came in with a Kd of 0.00908 nM. In other words, the picomolar range.
The same measure for B2: 0.0612 nM.
Next, B3: 0.0216 nM; B4: 0.00655 nM; B5: 0.0163 nM.
Next, B6: 0.0136 nM.
In turn, B7 showed a Kd of 0.0572 nM.
The same measure for B8: 0.0201 nM.
The same measure for B9: 0.015 nM; for B10: 0.049 nM.
B11 displayed a Kd of 0.0058 nM.
On to B12, for which the Kd was found to be 0.0183 nM.
In turn, B13 showed a Kd of 0.0213 nM.
Next, B14: 0.0137 nM; B15: 0.0204 nM; B16: 0.0216 nM.
As for B17, the Kd worked out at 0.0267 nM. The Kd values of the last two molecules are within 1.5-fold of each other.
Next, B18: 0.0283 nM.
B19 returned a Kd of 0.0408 nM.
Regarding B20, binding was characterised by a dissociation constant (Kd) of 0.0169 nM.
Next, B21: 0.0161 nM.
